Results reported in US20190338048A1.
Like-named read-outs stand apart in the source and are kept apart here.

Legend:
[1] = target: CAT-2200 lambda light chain, wild type (L1), N-terminal FLAG tag; assay: LCCA, SPR of light chain tags
[2] = target: CAT-2200 heavy chain Fab construct (H1) L143E_K145T_Q179E; assay: LCCA, SPR tag read-out
[3] = target: CAT-2200 heavy chain Fab construct (H1) L143E_K145T; assay: LCCA, SPR tag read-out
[4] = target: CAT-2200 heavy chain Fab construct (H1) D146G_Q179K; assay: LCCA, SPR tag read-out
[5] = target: CAT-2200 heavy chain Fab construct (H1) S186R; assay: LCCA, SPR tag read-out
[6] = target: CAT-2200 heavy chain Fab construct (H1) Q179K; assay: LCCA, SPR tag read-out
[7] = target: CAT-2200 heavy chain Fab construct (H1) S186R; assay: LCCA, SPR tag read-out; remark: listed apart in the source
[8] = target: CAT-2200 heavy chain Fab construct (H1) Q179K; assay: LCCA, SPR tag read-out; remark: listed apart in the source
[9] = target: CAT-2200 heavy chain Fab construct (H1) L124E; assay: LCCA, SPR tag read-out
[10] = target: Pertuzumab kappa light chain S121K_T129K_S131K; assay: LCCA
[11] = target: Pertuzumab kappa light chain S121K_S131K; assay: LCCA
[12] = target: Pertuzumab kappa light chain S131K_L135A; assay: LCCA
[13] = target: Pertuzumab kappa light chain S131K_S176K; assay: LCCA
[14] = target: Pertuzumab kappa light chain S131K_L135W_S176K; assay: LCCA
[15] = target: Pertuzumab kappa light chain S131K_S176K; assay: LCCA; remark: listed apart in the source
[16] = target: Pertuzumab kappa light chain S131K_S176K; assay: LCCA; remark: listed apart in the source
[17] = target: Pertuzumab kappa light chain S131K_S176K; assay: LCCA; remark: listed apart in the source
[18] = target: Pertuzumab kappa light chain S121K_S131K_S176K; assay: LCCA
[19] = target: Pertuzumab kappa light chain S121K_S131K_S176K; assay: LCCA; remark: listed apart in the source
[20] = target: CAT-2200 lambda light chain S176E_Y178E (L1), FLAG-tagged; assay: LCCA, SPR of light-chain tags
[21] = target: CAT-2200 lambda light chain V133L_S176D_Y178E (L1), FLAG-tagged; assay: LCCA, SPR of light-chain tags
[22] = target: Pertuzumab kappa light chain V133A_S176K_T178A (L2), HA-tagged; assay: LCCA, SPR of light-chain tags
[23] = target: Pertuzumab kappa light chain V133G_S176R_T178A (L2), HA-tagged; assay: LCCA, SPR of light-chain tags
[24] = target: Pertuzumab kappa light chain V133A_S176K_T178A (L2), HA-tagged; assay: LCCA, SPR of light-chain tags; remark: listed apart in the source
[25] = target: Pertuzumab kappa light chain V133G_S176R_T178A (L2), HA-tagged; assay: LCCA, SPR of light-chain tags; remark: listed apart in the source
[26] = target: CAT-2200 lambda light chain S176E_Y178E (L1), FLAG-tagged; assay: LCCA, SPR of light-chain tags; remark: listed apart in the source
[27] = target: CAT-2200 lambda light chain V133L_S176D_Y178E (L1), FLAG-tagged; assay: LCCA, SPR of light-chain tags; remark: listed apart in the source
[28] = target: Pertuzumab kappa light chain V133G_L135W_S176D; assay: LCCA
[29] = target: CAT-2200 lambda light chain Y178K; assay: LCCA
[30] = target: Pertuzumab kappa light chain V133G_L135W_S176D_T180E; assay: LCCA
[31] = target: Pertuzumab kappa light chain V133G_S176D; assay: LCCA
[32] = target: Pertuzumab kappa light chain V133G_S176D_T180E; assay: LCCA
[33] = target: CAT-2200 lambda light chain S122D_Y178K; assay: LCCA
[34] = target: Pertuzumab kappa light chain S121K_V133G_S176D; assay: LCCA
[35] = target: Pertuzumab kappa light chain Q124E_V133G_S176D_T180E; assay: LCCA
[36] = target: Pertuzumab kappa light chain Q124E_V133G_S176D; assay: LCCA
[37] = target: Pertuzumab kappa light chain Q124E_V133G_S176D_T180E; assay: LCCA; remark: listed apart in the source
[38] = target: Pertuzumab kappa light chain Q124E_V133G_S176D_T178E_T180E; assay: LCCA
[39] = target: Pertuzumab kappa light chain Q124E_V133G_S176D; assay: LCCA; remark: listed apart in the source
[40] = target: Pertuzumab kappa light chain Q124K_V133A_T178R; assay: LCCA
[41] = target: CAT-2200 lambda light chain K129T_V133W_S180E; assay: LCCA
[42] = target: Pertuzumab kappa light chain Q124R_Q160K_T178R; assay: LCCA
[43] = target: Pertuzumab kappa light chain Q124R_L135W_Q160K_T178R; assay: LCCA
[44] = target: Pertuzumab kappa light chain Q124R_Q160K_T178R; assay: LCCA; remark: listed apart in the source
[45] = target: Pertuzumab kappa light chain Q124R_L135W_T178R; assay: LCCA
[46] = target: Pertuzumab kappa light chain Q124K_S176A_T178R; assay: LCCA
[47] = target: Pertuzumab kappa light chain Q124E_V133D_S176E_T180E; assay: LCCA
[48] = target: Pertuzumab kappa light chain Q124E_V133D_S176E_T178E_T180E; assay: LCCA
[49] = target: CAT-2200 lambda light chain Y178K; assay: LCCA; remark: listed apart in the source
[50] = target: Pertuzumab kappa light chain Q124E_S176E_T178D_T180E; assay: LCCA
[51] = target: Pertuzumab kappa light chain Q124E_S176E_T178E_T180E; assay: LCCA
[52] = target: Pertuzumab kappa light chain Q124E_S176E_T180E; assay: LCCA
[53] = target: Pertuzumab kappa light chain V133D (L2), N-terminal HA tag; assay: LCCA, SPR of light chain tags
[54] = target: CAT-2200 lambda light chain S176K_Y178K (L1), N-terminal FLAG tag; assay: LCCA, SPR of light chain tags
[55] = target: Pertuzumab kappa light chain V133D (L2), N-terminal HA tag; assay: LCCA, SPR of light chain tags; remark: listed apart in the source
[56] = target: Pertuzumab kappa light chain Q124E_Q160E_S176D_T178D; assay: LCCA
[57] = target: Pertuzumab kappa light chain Q124E_Q160E_S176D_T178D_T180E; assay: LCCA
[58] = target: Pertuzumab kappa light chain Q124E_Q160E_S176A_T178A_T180E (L2), N-terminal HA tag; assay: LCCA, SPR of light chain tags

“CAT-2200 Fab heavy chain, wild type (H1), ABD2-His6 tagged” was tested, and the H1L1:H1L2 normalized median scalar value ln(r1/f1) [1] was 0.48.

With “CAT-2200 lambda light chain construct (L1) E124K_Y178R, FLAG-tagged” the H1L1:H1L2 normalized median scalar value ln(r1/f1) [2] was -0.13.

Substance “CAT-2200 lambda light chain construct (L1) E124R, FLAG-tagged” has an H1L1:H1L2 normalized median scalar value ln(r1/f1) [3] of -0.11.

With “CAT-2200 lambda light chain construct (L1) S180E, FLAG-tagged” the H1L1:H1L2 normalized median scalar value ln(r1/f1) [4] was 2.16, the H1L1:H1L2 normalized median scalar value ln(r1/f1) [5] was 2.24 and the H1L1:H1L2 normalized median scalar value ln(r1/f1) [6] was 2.32. It also gave an H1L1:H1L2 normalized median scalar value ln(r1/f1) [7] of 2.07 and an H1L1:H1L2 normalized median scalar value ln(r1/f1) [8] of 0.94.

“CAT-2200 lambda light chain construct (L1) V133G_S176R, FLAG-tagged” showed an H1L1:H1L2 normalized median scalar value ln(r1/f1) [9] of 0.08.

Substance “Pertuzumab Fab heavy chain K145T_Q179E_K228D” has an H2L2:H2L1 median scalar value [10] of 0.07 ln, an H2L2:H2L1 normalized median ratio [10] of 51% and an H2L2:H2L1 median scalar value [11] of -0.1 ln.

Work on “Pertuzumab Fab heavy chain K145T_Q179E_S188F_V190F” yielded an H2L2:H2L1 median scalar value [12] of -0.45 ln.

For Pertuzumab Fab heavy chain K145T_S186E, the H2L2:H2L1 median scalar value [13] was 0.9 ln, the H2L2:H2L1 median scalar value [14] was -0.33 ln and the H2L2:H2L1 median scalar value [15] was 1.58 ln. It also gave an H2L2:H2L1 median scalar value [16] of 0.53 ln and an H2L2:H2L1 median scalar value [17] of 2.25 ln.

“Pertuzumab Fab heavy chain K145T_S186E_K228D” gave an H2L2:H2L1 median scalar value [18] of 1.21 ln and an H2L2:H2L1 median scalar value [19] of 0.33 ln.

“Pertuzumab Fab heavy chain L124E_S188W (H2)” showed an H2L2:H2L1 normalized median ratio (H2L1 share) [20] of 46%, an H2L2:H2L1 normalized median ratio (H2L1 share) [21] of 15% and an H2L2:H2L1 normalized median ratio, H2L2 share [22] of 85%. The H2L2:H2L1 normalized median scalar value ln(r1/f1) [22] was 1.71, the H2L2:H2L1 normalized median ratio, H2L2 share [23] was 86% and the H2L2:H2L1 normalized median scalar value ln(r1/f1) [23] was 1.84. The H2L2:H2L1 normalized median ratio, H2L2 share [24] was 54%, the H2L2:H2L1 normalized median scalar value ln(r1/f1) [24] was 0.18 and the H2L2:H2L1 normalized median ratio, H2L2 share [25] was 54%. For the same substance, the H2L2:H2L1 normalized median scalar value ln(r1/f1) [25] was 0.15, the H2L2:H2L1 normalized median ratio (H2L1 share) [26] was 46% and the H2L2:H2L1 normalized median ratio (H2L1 share) [27] was 14%.

In the case of Pertuzumab Fab heavy chain L124R, the H2L2:H2L1 median scalar value [28] is reported as 0.55 ln, the H2L2:H2L1 normalized median ratio [29] is reported as 9% and the H2L2:H2L1 median scalar value [30] is reported as 0.29 ln. The H2L2:H2L1 median scalar value [31] was 2.2 ln, the H2L2:H2L1 median scalar value [32] was 2.34 ln and the H2L2:H2L1 normalized median ratio [32] was 91%.

Substance Pertuzumab Fab heavy chain L124R_K228D has an H2L2:H2L1 normalized median ratio [33] of 33%, an H2L2:H2L1 median scalar value [34] of 1.97 ln and an H2L2:H2L1 normalized median ratio [34] of 67%.

Substance Pertuzumab Fab heavy chain L124R_L143K has an H2L2:H2L1 median scalar value [35] of 0.25 ln, an H2L2:H2L1 median scalar value [36] of 0.55 ln and an H2L2:H2L1 median scalar value [37] of 0.35 ln. It also gave an H2L2:H2L1 median scalar value [38] of 0.07 ln, an H2L2:H2L1 normalized median ratio [38] of 51% and an H2L2:H2L1 normalized median ratio [29] of 49%. It also gave an H2L2:H2L1 median scalar value [39] of 0.45 ln.

“Pertuzumab Fab heavy chain L124W_L143E_K145T” was tested, and the H2L2:H2L1 median scalar value [40] was 0.73 ln, the H2L2:H2L1 normalized median ratio [40] was 67% and the H2L2:H2L1 normalized median ratio [41] was 33%.

Pertuzumab Fab heavy chain L143E_K145T was tested, and the H2L2:H2L1 median scalar value [42] was 3.09 ln, the H2L2:H2L1 median scalar value [43] was -0.26 ln and the H2L2:H2L1 median scalar value [44] was 0.86 ln. For the same substance, the H2L2:H2L1 median scalar value [45] was -0.32 ln.

“Pertuzumab Fab heavy chain L143E_K145T_S188W” was tested, and the H2L2:H2L1 median scalar value [46] was 0.43 ln.

Work on Pertuzumab Fab heavy chain L143K_S188K yielded an H2L2:H2L1 median scalar value [47] of 1.01 ln, an H2L2:H2L1 normalized median ratio [47] of 73% and an H2L2:H2L1 median scalar value [48] of 0.61 ln. For the same substance, the H2L2:H2L1 normalized median ratio [29] was 27%.

Pertuzumab Fab heavy chain Q179K_S188K showed an H2L2:H2L1 normalized median ratio [49] of 8%, an H2L2:H2L1 median scalar value [50] of 2.01 ln and an H2L2:H2L1 normalized median ratio [50] of 88%. The H2L2:H2L1 normalized median ratio [29] was 12%, the H2L2:H2L1 median scalar value [51] was 2.48 ln and the H2L2:H2L1 normalized median ratio [51] was 92%. The H2L2:H2L1 median scalar value [52] was 2.76 ln.

For “Pertuzumab Fab heavy chain S186K_S188T (H2), ABD2-His6 tagged”, the H2L2:H2L1 normalized median ratio [53] was 62%, the H2L2:H2L1 normalized median scalar value ln(r1/f1) [53] was 0.49 and the H2L2:H2L1 normalized median ratio [54] was 38%. The H2L2:H2L1 normalized median ratio [55] was 70% and the H2L2:H2L1 normalized median scalar value ln(r1/f1) [55] was 0.85.

Work on Pertuzumab Fab heavy chain S186R_S188K yielded an H2L2:H2L1 median scalar value [56] of 0.8 ln, an H2L2:H2L1 normalized median ratio [56] of 69% and an H2L2:H2L1 median scalar value [57] of 0 ln. For the same substance, the H2L2:H2L1 normalized median ratio [29] was 31%.

“Pertuzumab Fab heavy chain S186R_S188W (H2), ABD2-His6 tagged” gave an H2L2:H2L1 normalized median scalar value ln(r1/f1) [58] of 2.64.
